For this test, the target named is CD47 receptor (plate-coated and soluble antigen of the affinity ELISA) (UniProt Q08722 19-141, limits assumed). The test can be described thus: ELISA of equilibrated mAb/receptor mixtures on CD47-coated plate (Friguet method). On the technique in general: ELISA stands for enzyme-linked immunosorbent assay.

These results are taken from patent publication US20230054375A1 (UAB RESEARCH FOUNDATION, published 2023).

CD47 receptor (plate-coated and soluble antigen of the affinity ELISA), sequence (Q08722 19-141 limits assumed): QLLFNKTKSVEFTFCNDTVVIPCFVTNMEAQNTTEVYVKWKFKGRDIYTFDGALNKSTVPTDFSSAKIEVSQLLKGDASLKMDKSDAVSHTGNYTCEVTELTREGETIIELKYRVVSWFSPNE
Method: Briefly, the 96-well plate was coated with 200 ng of CD47 receptor in 100 μL of coating buffer (50 mM carbonate-bicarbonate buffer, pH 9.6) and incubated at 4° C. overnight. The plate was washed three times with PBS containing 0.05% Tween 20, and blocked with 2% BSA (bovine serum albumin). […] After incubating at 37° C. for 1 hr, 100 μL of HRP goat anti-mouse IgG secondary antibody (Abcam, Cambridge, Mass.) at concentration of 50 ng/mL was added to each well and incubated at 37° C. for 1 hr, followed with TMB substrate for color development. The reaction was stopped by adding 100 μL of 1M sulfuric acid. The absorbance was recorded with BioTek plate reader at a wavelength of 450 nm.

B1: anti-CD47 monoclonal antibody (IgG2b/kappa) (antibody, V domains shown)
VH: EVQLVESGGGLVQPKGSLKLSCAASGFTFNTYAMNWVRQAPGKGLEWIARIRSKSNNYATYYADSMKDRFTISRDDSQSMLYLQMNNLKTEDTAMYYCVRPAQGAMDYWGHGTSVTVSS
VL: DIVLTQSPATLSVTPGDSVSLSCRASQRISNNLHWYQQKSHESPRLLIKYSSQSISGIPSRFSGSGSGTDFTLSINSVETEDFGMYFCQQSNAWPYTFGGGTKLEIRR
notes: The antibody was labelled with Alexa Fluor 647 for flow cytometry and confocal imaging; also called anti-CD47 mAb; CD47 mAb
As for B1, the Kd worked out at 2.3 nM.

Broadly, the Kd is the concentration at which binding is half-saturated.
